Results published in patent US20040058857A1, “Method of treating cancer” (priority 2003, published 2004).
Numbered stars: 1 amine (or outer) side, 2 acyl side, 3 side chain; on linkers, the order of the positions; unused ones are H or OH. Square brackets hold non-standard residues; d marks the D form. Peptide text beside a SMILES is read from it. * marks the point of attachment. X1 = COc1cccc2c1C(=O)c1c(O)c3c(c(O)c1C2=O)C[C@@](O)(C(=O)CO)C[C@@H]3OC1CC(N*)C(O)C(C)O1; Glutaryl = O=C(CCCC(=O)[*:2])[*:1]; Hyp = O=C(O)[C@@H]1C[C@@H](O)CN1; Chg = N[C@H](C(=O)O)C1CCCCC1

Legend:
[1] = human, in vivo
Description: (§1) Compound B (as described in Example 2) is a peptide conjugate of doxorubicin (Dox) that is cleaved by PSA at prostate tumor cells to leucine-dox (Leu-dox) and Dox. Thirty-three patients with advanced hormone refractory prostate cancer were treated with Compound B. Nineteen patients were initially treated at escalating dose levels of 20 (n=1), 40 (n=3), 80 (n=4), 160 (n=2), 225 (n=6), and 315 mg/m^2 (n=2) in the phase I portion of the trial. An additional 14 patients were treated with 225 mg/m^2 with prednisone.

[2] = human, in vivo; remark: listed apart in the source
Description: as §1

[3] = clinical; settings: male, human, in vivo, 225 mg/m2
[4] = Clinical trial of Compound B: tolerability and dose limiting toxicity

For `COc1cccc2c1C(=O)c1c(O)c3c(c(O)c1C2=O)C[C@@](O)(C(=O)CO)C[C@@H]3O[C@H]1C[C@H](NC(=O)[C@@H](N)CC(C)C)[C@H](O)[C@H](C)O1` [Leu-Dox, leucine-dox], the “mean AUC” value ([1]; 225 mg/m2) was 4 µM·h.

In the case of `COc1cccc2c1C(=O)c1c(O)c3c(c(O)c1C2=O)C[C@@](O)(C(=O)CO)C[C@@H]3OC1CC(NC(=O)[C@H](CC(C)C)NC(=O)[C@H](CO)NC(=O)[C@H](CCC(N)=O)NC(=O)[C@@H](NC(=O)[C@H](CO)NC(=O)[C@H](C)NC(=O)[C@@H]2C[C@@H](O)CN2C(=O)CCCC(=O)O)C2CCCCC2)C(O)C(C)O1` (stereo partly drawn) [Compound B, [N-Glutaryl-(4-trans-L-Hyp)]-Ala-Ser-Chg-Gln-Ser-Leu-Dox] (Glutaryl-[Hyp]AS[Chg]QSL-X1; N-terminus and C-terminus assumed), the “metabolism in PK studies” value [1] is reported as “metabolized to Leu-dox and Dox”, the “patients experiencing grade 3 fatigue” value [2] is reported as “two” and the AUC [3] is reported as 6 µM·h. The “patients with dose limiting neutropenia” value ([4]; 315 mg/m^2 dose level) was 2 patients, the tolerability ([4]; 33 patients with advanced hormone refractory prostate cancer) was “generally well tolerated” and the “recommended phase II dose” value ([4]; phase I dose escalation 20-315 mg/m^2) was 225 mg/m^2.
